From patent US20260258115A1 (MAPP BIOPHARMACEUTICAL, published 2026)

Biological target: RSV F on RSV-A2 virus (Respiratory syncytial virus (RSV-A2))
Assay: cell-based or functional assay

Binder	Neutralization IC50 (RSV subtype A) [µg/mL]
ADI-41294 (antibody, V domains shown) VH: EVQLLESGGGLVQPGGSLRLSCAASGFTFSAYEMNWVRQAPGKGLEWVSYISSSGSNKHYADSVKGRFTISRDNAKNSLHLHMNSLRAEDTALYYCTRPHQEEWELLPNDAFDLWGQGTMVTVSS VL: QSALTQPPSASGSPGQSVTISCTGTSTDVGAYTYVSWYQQHPGKAPKLIIYEVYKRPSGVPNRFFGSKSGNTASLTVSGLQAEDEADYYCSSYGGSNNFGLFGGGTKLIVL	0.0805
ADI-41302 (antibody, V domains shown) VH: QVQLVESGGGVVQPGRSLRLSCAASGFTFSSYAMQWVRQAPGKGLEWVAVMTNDGDDKYYADSVRGRFTISRDNSKNTLYLQMNNLRPEDTAVYYCARDLFEWWELLGYCYAMDVWGQGTTVTVSS VL: QSVLTQPPSASGSPGQSVTISCTGTSSDVGAYNYVSWYQQHPGKAPKLIIYEVYKRPSGVPDRFFGSKSGNTASLTVSGLQAEDEADYYCSSYAGSNTLGVFGGGTKVTVL	0.006
ADI-41309 (antibody, V domains shown) VH: EVQLLESGPGLVKPSQTLSLTCTVSGGSISSGDYYWSWVRQPPGKGLEWIGNIYHSGSTYYKPSLKSRVSISLDTSKNQFSLKLSSVTAADTAIYYCARDGGENYVWGTFRFLDVWGQGTTVTVSS VL: DIRLTQSPGTLSLSPGERATLSCRASQSVSSSYLAWYQQKPGQAPRLLIYGVSSRATGIPDRFSGSGSGTDFTLTINRLEPEDFALYHCQQYGSSPHTFGQGTKVEIK	> 25
ADI-41297 (antibody, V domains shown) VH: QVQLVQSGAEVKKPGSSVKVSCKASGGTFSTDAISWVRQAPGQGLEWMGGIIPLFGTANYAQKFQGRVTITADESTSTAYMELNSLRSVDTAVYYCGRTGAFDGEVVVRPHLDLWGQGTLVTVSS VL: QPVLTQPASVSGSPGQSITISCTGTSSDVGGYDYVSWYQHHPGKAPKLMIYEVSNRPSGVSNRFSGSKSGNTASLTISGLQADDEAAYYCSSYTRSNTLLFGGGTKLTVL	> 25
ADI-41286 (antibody, V domains shown) VH: QVQLVQSGAEVKKPGASVKVSCKASGYTFISYGISWVRQAPGQGPEWMGWISTHNGNTNYAQKLQGRVTMTTDTSTSTAYMELRSLRSDDTAVYYCARDERSIAVEVYLGSTFDIWGQGTMVTVSS VL: DIQVTQSPSSVSASVGDRVTITCRASQGISSWLAWYQQKPGKAPKLLIYAASTLQSGVPSRFSGSGSGTDFTLTISRLQPEDFATYYCQQANIFGVTFGPGTKVDIK	> 25
ADI-41287 (antibody, V domains shown) VH: EVQLVESGGGLVQPGRSLRLSCAASGFTFDDYAMHWVRQAPGKGLEWVSSISWHSADIGYAASVEGRFTISRDNAKNSLFLQMNSLRPEDTALYYCAKEIVSTSWYSGYFQDWGQGTLVTVSS VL: QPVLTQPRSVSGSPGQSVTISCTGTSSDVGDYNYVSWYQQHPGKAPKLMIYDVSKRPSGVPDRFSGSKSGNTASLTISGLQGEDEADYYCCSYAGRHTFVFGTATKVTVL	5.85
ADI-41306 (antibody, V domains shown) VH: QVQLVESGPRLVKPSQTLSLTCTVSGGSIYRGDYDWNWIRQPPGKGLEWIGYISYTGNTHYNSSLKSRLSISADTSGTHFSLKLSSVTAADTAIYYCARDVGYGGNAAHYYYYAMDVWGQGTTVTVSS VL: ETTLTQSPATLSLSPGERATLSCRASQSVGSSLAWYQQKVGQAPRLLIYDASSRVTGIPARFSGSGSGTDFTLTISSLEPGDFAVYYCQQRSNSLTFGGGTKVEIK	0.173
ADI-41299 (antibody, V domains shown) VH: EVQLVESGGGLVHPGRSLRLSCGASGFTFRSFAMHWVRQAPGKGLEWVAVISYDGSDEYYADSVKGRFTISRDNSRNTLFLQMNRLRPEDTAIYYCARAYCSTSNCPVLDYWGQGTLVTVSS VL: QSVLIQPASVSGSPGQSITISCTGTSSDVGGYSLVSWYQQHPGKAPKLIIFEGNKRPAGVSDRFSGSKYGDTASLTISGLQAEDEADYYCCSYAGGHSVFGGGTKVTVL	> 25
ADI-41293 (antibody, V domains shown) VH: QVQLQQSGPGLAKPSQTLSLTCTVSGGPISGVDYYWSWIRQPPGKGLEWIGYIYYSGSTYYNPSLKSRVTISVDTSKKQFSLKMSSVTAADTAVYYCARDVGATPYYYYGMDVWGQGTTVTVSS VL: DIVLTQSPDTLSLSPGERATLSCRASQSVRSNYLAWYQHKPGQAPRLLIYGASSRVAGIPDRFSGSGSGTDFTLTISRLEPEDFAVYYCQQYGSSPPSVTFGGGTKVEIK	0.159
ADI-41308 (antibody, V domains shown) VH: EVQLVESGPGLVKPSQTLSLTCAISGDSVSSNSAAWNWIRQSPSRGLERMGRTYYRSKWYDDYAVSVKSRIIINPDTSKNQFSLQLNSVTPEDTAVYYCARGISTFGGVIYALEIWGQGTMVTVSS VL: SYVLTQPASVSGSPGQSITISCTGLTSDVGGYNFVSWYQQHPGKAPKLIIYDVSHRPSGVSNRFSGSESGNTASLTISGLQAEDEAHYYCSSYTRTSIVVFGGGTKLTVL	> 25
ADI-41291 (antibody, V domains shown) VH: QVQLQQWGAGLLKPSETLSLTCVVYGESFSDSGYYWTWIRQPPEKGLEWIGEINHGGSTSYNPSLKSRVTISVDTSENQFSLKVTSVTGADTAVYYCARLRLGCSGGSCYSRFDYWGQGTLVTVSS VL: DIQLTQSPSSLSASVGDRVTITCRASQSINSYLNWYQQKPGKAPVLLIHAASSLQGGVPSRFSGSGSGTDFTLTISSLQPEDFATYYCQQSYNTRWTFGHGTKVDIK	> 25
ADI-41303 (antibody, V domains shown) VH: QVQLVQSGGGLVRPGGSLRVSCAASGFIFNNYALTWVRQAPGKGLEWVSAISGSGSSTYYADSVKGRFTISRENSNNRLYLQLSGLRAEDTAVYFCARVRGLVWFEGRIDPYPNVFDYWGQGTLVTVSS VL: DIVLTQSPGTLSLSPGERATLSCRASQSVSNDYLAWYQQKPGQAPRLLIYDASSRAIGIPDRFSGSGSGTDFTLIISRLEPEDFAVYYCHHPGKFGQGTKVEIK	> 25
ADI-41307 (antibody, V domains shown) VH: QVQLVESGGGLVKPGGSLRLSCAASGFPLSPYALNWVRQAPGKGLEWVSSITSSSAYIYYADSVKGRFTVSRDNPTNSLYLQMNSLRAEDTAVYYCARTIPQHYYDNNGDYYNYGMDVWGQGTTVTVSS VL: DIVLTQSPATLSVSPGQRITLSCRASQTVRSNLAWYQQKPGQPPRLLIYGASTRATGVPARFTGSGSGTEFTLTITSLQSDDFAVYYCHQYNDRPLTFGPGTKVEIK	> 25
ADI-41296 (antibody, V domains shown) VH: EVQLVESGVEVKKPGESLKISCRGSGYTFYNYWIAWVRQKPGKGLEYMGTIYLDDSETIYSPSFQGEVTISADKSINTAYLQWNSLKASDTANYYCARQMDFYFDVWGRGTLVTVSS VL: SYELMQPPSVSVSPGQTARITCSGDPLPRESAYWYQQKPGQAPVVIIFNDIERPLGIPERFSGSRSGTTVTLTISGAQAEDEADYYCQSADSRKTFVFGTGTKLTVL	> 25
ADI-41285 (antibody, V domains shown) VH: QVQLVQSGAEVKKPGSSVKVSCKASGGTFSYYAISWVRQAPGQGLEWMGGIIPILGTVKNAQKFQGRVTITADKITSIAYMELSSLRHEDTAVYYCARDYYDSSGYYYNGYGMDVWGQGTTVTVSS VL: QSVLIQPPSASGTPGQRVTISCSGSSSNIGSNYVYWYQQLPGTAPKLLIYRNDQRPSGVPDRFSGSKSGTSASLAISGLRSGDEADYYCAAWDDSLGGPIWVFGGGTKLTVL	> 25
ADI-41288 (antibody, V domains shown) VH: EVQLVESGGGLVQPGGSLRLSCAASGFTFSSYAMSWVRQAAGKGLEWVSAISGSGDDTFYADSVKDRFIISRDSSKRKVYLQMNSLRVEDTAVYYCAKTDIMVTFGGVVVDAYYFDHWGQGTLVTVSS VL: ETTLTQSPGTLSLSPGERATLSCRASQFVFRSYLAWYQQRPGQPPRLLIYGASSRATGIPDRFSGRGSGTEFTLTISRLEPEDFAMYYCQHYDSSPPGTFGGGTKVEIK	> 25
ADI-41304 (antibody, V domains shown) VH: EVQLVESGPGLVKPSQTLSLTCTVSGGSIRSHDYYWSWIRQPPGKGLEWIGYSYYSGSTYYNPSLKSRVIISLDTSKNQFSLNLTSVTAADTAMYYCARDRPHTSSWIPGWFDPWGQGTLVTVSS VL: SYELTQPPSASGTPGQRVTISCSGSSSNIGSNTVSWYQQFPGKAPKLLIYSNNERPSGGPDRFSGSKSGTSASLAIGGLQSEDEANYYCAAWDDSLYAVVFGGGTKLTVL	> 25
ADI-41292 (antibody, V domains shown) VH: EVQLLESGGGVVQPGRSLRLSCAASGFSFSSYGIHWVRQAPGKGLECVALMSYDGSEKYYADSVKGRFTISRDNSKNTLYLHMNSLRREDTAVYYCAKGSHLRWSHLDYYFHLWGRGTLVTVSS VL: DIVMTQSPSTLSASVGDRVTITCRASQSLSTWLAWYQQKPGKAPKLLISDASNLESGVPSRFSGRGSGTEFTLTISGLQPDDFATYYCQQERTFGQGTKVDIK	> 25
ADI-41284 (antibody, V domains shown) VH: QVQLVQSGGGLVKPGGSLRLSCAASGFTFSNAWMSWVRQAPGKGLEWVGRIKSEVDGGTADYAANVKGRLTISRDDSKNMMYLQMNSLKTEDTAVYYCTTDPGVGWIFGEVKLFRTDPEYWGQGTLVTVSS VL: QSVLTQPPSVSAAPGQKVTISCSGSSSNIGNHYVSWYQQLPGTSPKLLIYDNNKRPSGIPDRFSGSKSGTSATLGITGLQPGDEADYYCGTWDSSLSAVRVFGGGTKVTVL	> 25
ADI-41305 (antibody, V domains shown) VH: QVTLKESGPGLVKPSQTLSLTCTVSGGSISGGGYYWSWIRQLPGKGLQWIGCIYDSGTTYYNPSLKSLVTISIDTSKNQFSLKLSSVTAADTAVYYCARGGSLDDFWSATWYFALWGRGTLVTVSS VL: EIVLTQSPGTLSLSPGERATLSCRASQSVSSNYLAWYQQKPGQAPRLLIYGASSRATGIPDRFSGSGSGTDFTLTISRLEPEDFAFYYCQQYGRSPYTFGPGTKLEIK	> 25
ADI-41289 (antibody, V domains shown) VH: EVQLVQSGAEVKKPGESLKISCKGSGYSFSSFWIGWVRQMPGKGLEWMGIIYPGDSDTRYSPSFQGQVTISADQSIRTAYLQWNSLKASDTGLYYCAKGGLGDVEMATIAVWGQGTLVTVSS VL: QSVLIQPASVSGSPGQSITIPCTGTSSDVGSYNLVSWYQHHPGKAPKLIISEGSKRPLGVSNRFSGSKSGNTASLTISGLQAEDEADYYCSSYVRSRTFNYVFGTGTKLTVL	> 25
